The source of these data is patent publication US20140220107A1.

Assay [1] addresses HIV-1 Ba-L gp145 (HIV-1 Ba-L (subtype B)). Description: gp160 antigen capture ELISA, 4E10 as capture antibody; media of transfected HEK293 cells, 48 h (negative control 0.123). A general note: ELISA stands for enzyme-linked immunosorbent assay.
The target of assay [2] is HIV-1 subtype C C06838v1c48 gp160 (HIV-1 subtype C isolate C06838v1c48). The assay is described as above.
The target of assay [3] is HIV-1 subtype C C06838v1c48 gp160 DC (HIV-1 subtype C isolate C06838v1c48). The description is as above.
The target in assay [4] is HIV-1 subtype C C06980v0c22 gp160 (HIV-1 subtype C isolate C06980v0c22). The description is as above.
Assay [5] addresses HIV-1 subtype C C06980v0c22 gp160 DC (HIV-1 subtype C isolate C06980v0c22). The description is as above.
Assay [6] addresses HIV-1 subtype C C06980v1c3 gp160 (HIV-1 subtype C isolate C06980v1c3). The assay is described as above.
The target of assay [7] is HIV-1 subtype C C06980v1c3 gp160 DC (HIV-1 subtype C isolate C06980v1c3). The assay is described as above.
The target of assay [8] is HIV-1 subtype C C3728v2c6 gp160 (HIV-1 subtype C isolate C3728v2c6). Described as above.
Assay [9] has as its target HIV-1 subtype C C3728v2c6 gp160 DC (HIV-1 subtype C isolate C3728v2c6). Described as above.
The target of assay [10] is HIV-1 Ba-L gp145 (HIV-1 Ba-L (subtype B)). Description: gp160 antigen capture ELISA, 4E10 as capture antibody; cell lysate of transfected HEK293 cells, 48 h (negative control 0.156).
In assay [11] the target is HIV-1 subtype C C06838v1c48 gp160 (HIV-1 subtype C isolate C06838v1c48). Described as above.
The target of assay [12] is HIV-1 subtype C C06838v1c48 gp160 DC (HIV-1 subtype C isolate C06838v1c48). Described as above.
Assay [13] addresses HIV-1 subtype C C06980v0c22 gp160 (HIV-1 subtype C isolate C06980v0c22). The assay is described as above.
Assay [14] concerns the target HIV-1 subtype C C06980v0c22 gp160 DC (HIV-1 subtype C isolate C06980v0c22). Described as above.
In assay [15] the target is HIV-1 subtype C C06980v1c3 gp160 (HIV-1 subtype C isolate C06980v1c3). The assay is described as above.
The target in assay [16] is HIV-1 subtype C C06980v1c3 gp160 DC (HIV-1 subtype C isolate C06980v1c3). The description is as above.
The target in assay [17] is HIV-1 subtype C C3728v2c6 gp160 (HIV-1 subtype C isolate C3728v2c6). The assay is described as above.
The target in assay [18] is HIV-1 subtype C C3728v2c6 gp160 DC (HIV-1 subtype C isolate C3728v2c6). The assay is described as above.
The target of assay [19] is HIV-1 Ba-L gp145 (HIV-1 Ba-L (subtype B)). The assay is described as follows: gp160 antigen capture ELISA, 2F5 as capture antibody; media of transfected HEK293 cells, 48 h (negative control 0.135).
Assay [20] addresses HIV-1 subtype C C06838v1c48 gp160 (HIV-1 subtype C isolate C06838v1c48). The assay is described as above.
The target of assay [21] is HIV-1 subtype C C06838v1c48 gp160 DC (HIV-1 subtype C isolate C06838v1c48). The assay is described as above.
Assay [22] deals with HIV-1 subtype C C06980v0c22 gp160 (HIV-1 subtype C isolate C06980v0c22). The description is as above.
Assay [23] concerns the target HIV-1 subtype C C06980v0c22 gp160 DC (HIV-1 subtype C isolate C06980v0c22). The assay is described as above.
Assay [24] deals with HIV-1 subtype C C06980v1c3 gp160 (HIV-1 subtype C isolate C06980v1c3). The assay is described as above.
Assay [25] concerns the target HIV-1 subtype C C06980v1c3 gp160 DC (HIV-1 subtype C isolate C06980v1c3). The assay is described as above.
For assay [26], the target named is HIV-1 subtype C C3728v2c6 gp160 (HIV-1 subtype C isolate C3728v2c6). The assay is described as above.
Assay [27] addresses HIV-1 subtype C C3728v2c6 gp160 DC (HIV-1 subtype C isolate C3728v2c6). Described as above.
Assay [28] deals with HIV-1 Ba-L gp145 (HIV-1 Ba-L (subtype B)). The assay is described as follows: gp160 antigen capture ELISA, 2F5 as capture antibody; cell lysate of transfected HEK293 cells, 48 h (negative control 0.150).
Assay [29] deals with HIV-1 subtype C C06838v1c48 gp160 (HIV-1 subtype C isolate C06838v1c48). The assay is described as above.
Assay [30] has as its target HIV-1 subtype C C06838v1c48 gp160 DC (HIV-1 subtype C isolate C06838v1c48). The description is as above.
In assay [31] the target is HIV-1 subtype C C06980v0c22 gp160 (HIV-1 subtype C isolate C06980v0c22). The assay is described as above.
Assay [32] deals with HIV-1 subtype C C06980v0c22 gp160 DC (HIV-1 subtype C isolate C06980v0c22). The description is as above.
Assay [33] addresses HIV-1 subtype C C06980v1c3 gp160 (HIV-1 subtype C isolate C06980v1c3). The assay is described as above.
The target in assay [34] is HIV-1 subtype C C06980v1c3 gp160 DC (HIV-1 subtype C isolate C06980v1c3). The description is as above.
For assay [35], the target named is HIV-1 subtype C C3728v2c6 gp160 (HIV-1 subtype C isolate C3728v2c6). The assay is described as above.
Assay [36] concerns the target HIV-1 subtype C C3728v2c6 gp160 DC (HIV-1 subtype C isolate C3728v2c6). The assay is described as above.

As for “4E10 human monoclonal antibody to the gp41 MPER”, the OD 450 nm in assay [1] came out at 2.42 OD 450 nm; in assay [2], 0.146 OD 450 nm; in assay [3] it was 0.162 OD 450 nm; in assay [4], 2.53 OD 450 nm; in assay [5], 2.61 OD 450 nm; in assay [6] it was 0.926 OD 450 nm. For the same substance, the OD 450 nm was determined as 1.1 OD 450 nm in assay [7]; 0.589 OD 450 nm in assay [8]; 0.681 OD 450 nm in [9]; 2.55 OD 450 nm in assay [10]; 2.65 OD 450 nm in [11]; 2.7 OD 450 nm in assay [12]. Moreover, the OD 450 nm in assay [13] worked out at 2.74 OD 450 nm; in assay [14], 2.62 OD 450 nm; in assay [15], 2.72 OD 450 nm; in assay [16], 2.59 OD 450 nm; in assay [17], 2.78 OD 450 nm; in assay [18], 2.65 OD 450 nm.
In the case of “2F5 human monoclonal antibody to the gp41 MPER”, the OD 450 nm in [19] turned out to be 2.27 OD 450 nm; in [20], 0.146 OD 450 nm; in assay [21] it was 0.155 OD 450 nm; in assay [22] it was 0.344 OD 450 nm; in assay [23] it was 0.298 OD 450 nm; in [24], 0.2 OD 450 nm. Further, the OD 450 nm in assay [25] was determined as 0.179 OD 450 nm; in assay [26], 0.198 OD 450 nm; in assay [27], 0.219 OD 450 nm; in [28], 2.64 OD 450 nm; in [29], 0.53 OD 450 nm; in [30] it was 0.506 OD 450 nm. In addition, the OD 450 nm in assay [31] amounted to 1.46 OD 450 nm; in assay [32] it was 1.21 OD 450 nm; in assay [33], 0.399 OD 450 nm; in assay [34], 0.446 OD 450 nm; in [35] it was 0.781 OD 450 nm; in [36], 0.829 OD 450 nm.
